In the RNAGym collection of RNA variant scans (doi:10.1021/acssynbio.7b00057):

B1: Pistol ribozyme (parent)
chain: GGGUCGUUGUUCCAUAAUCGCGUGGAUAUGGCACGCAAGUUUCUACCGGGCACCGUAAAUGUCCGACUGGAGCCGUUCGGGCGGCUAUAAACAGACCUCAGGCCCGAAGCGUGGCGGCACCUGCCGCCGGUGGUAAAAAAGAUCGGAAGAGCACACGUCU

Variants of: B1
Assay: aptazyme ON/OFF ratio, guanine; higher = stronger switching; co-transcriptional cleavage with and without guanine

Variant | aptazyme ON/OFF ratio
GGGUCGAUGUUCCAUAAUCGCGUGGAUAUGGCACGCAAGUUUCUACCGGGCACCGUAAAUGUCCGACUGGAGCCGUUCGGGCGGCUAUAAACAGACCUCAGGCCCGAAGCGUGGCGGCACCUGCCGCCGGUGGUAAAAAAGAUCGGAAGAGCACACGUCU [U7A] | 3.28
GGGUCGAUAUUCCAUAAUCGCGUGGAUAUGGCACGCAAGUUUCUACCGGGCACCGUAAAUGUCCGACUGGAGCCGUUCGGGCGGCUAUAAACAGACCUCAGGCCCGAAGCGUGGCGGCACCUGCCGCCGGUGGUAAAAAAGAUCGGAAGAGCACACGUCU [U7A G9A] | 1.83
GGGUCGAUGUUCUAUAAUCGCGUGGAUAUGGCACGCAAGUUUCUACCGGGCACCGUAAAUGUCCGACUGGAGCCGUUCGGGCGGCUAUAAACAGACCUCAGGCCCGAAGCGUGGCGGCACCUGCCGCCGGUGGUAAAAAAGAUCGGAAGAGCACACGUCU [U7A C13U] | 1.58
GGGUCGAUGUUCGAUAAUCGCGUGGAUAUGGCACGCAAGUUUCUACCGGGCACCGUAAAUGUCCGACUGGAGCCGUUCGGGCGGCUAUAAACAGACCUCAGGCCCGAAGCGUGGCGGCACCUGCCGCCGGUGGUAAAAAAGAUCGGAAGAGCACACGUCU [U7A C13G] | 1.11
GGGUCGAUGUUCAAUAAUCGCGUGGAUAUGGCACGCAAGUUUCUACCGGGCACCGUAAAUGUCCGACUGGAGCCGUUCGGGCGGCUAUAAACAGACCUCAGGCCCGAAGCGUGGCGGCACCUGCCGCCGGUGGUAAAAAAGAUCGGAAGAGCACACGUCU [U7A C13A] | 1.47
GGGUCGAUGUUUAAUAAUCGCGUGGAUAUGGCACGCAAGUUUCUACCGGGCACCGUAAAUGUCCGACUGGAGCCGUUCGGGCGGCUAUAAACAGACCUCAGGCCCGAAGCGUGGCGGCACCUGCCGCCGGUGGUAAAAAAGAUCGGAAGAGCACACGUCU [U7A C12U C13A] | 1.29
GGGUCGAUGUUUGAUAAUCGCGUGGAUAUGGCACGCAAGUUUCUACCGGGCACCGUAAAUGUCCGACUGGAGCCGUUCGGGCGGCUAUAAACAGACCUCAGGCCCGAAGCGUGGCGGCACCUGCCGCCGGUGGUAAAAAAGAUCGGAAGAGCACACGUCU [U7A C12U C13G] | 1.16
GGGUCGAUGUUUUAUAAUCGCGUGGAUAUGGCACGCAAGUUUCUACCGGGCACCGUAAAUGUCCGACUGGAGCCGUUCGGGCGGCUAUAAACAGACCUCAGGCCCGAAGCGUGGCGGCACCUGCCGCCGGUGGUAAAAAAGAUCGGAAGAGCACACGUCU [U7A C12U C13U] | 1.38
GGGUCGAUAUUACAUAAUCGCGUGGAUAUGGCACGCAAGUUUCUACCGGGCACCGUAAAUGUCCGACUGGAGCCGUUCGGGCGGCUAUAAACAGACCUCAGGCCCGAAGCGUGGCGGCACCUGCCGCCGGUGGUAAAAAAGAUCGGAAGAGCACACGUCU [U7A G9A C12A] | 2.25
GGGUCGAUGUUACAUAAUCGCGUGGAUAUGGCACGCAAGUUUCUACCGGGCACCGUAAAUGUCCGACUGGAGCCGUUCGGGCGGCUAUAAACAGACCUCAGGCCCGAAGCGUGGCGGCACCUGCCGCCGGUGGUAAAAAAGAUCGGAAGAGCACACGUCU [U7A C12A] | 1.54
GGGUCGAUGUUUCAUAAUCGCGUGGAUAUGGCACGCAAGUUUCUACCGGGCACCGUAAAUGUCCGACUGGAGCCGUUCGGGCGGCUAUAAACAGACCUCAGGCCCGAAGCGUGGCGGCACCUGCCGCCGGUGGUAAAAAAGAUCGGAAGAGCACACGUCU [U7A C12U] | 1.48
GGGUCGAUGUUGCAUAAUCGCGUGGAUAUGGCACGCAAGUUUCUACCGGGCACCGUAAAUGUCCGACUGGAGCCGUUCGGGCGGCUAUAAACAGACCUCAGGCCCGAAGCGUGGCGGCACCUGCCGCCGGUGGUAAAAAAGAUCGGAAGAGCACACGUCU [U7A C12G] | 1.44
GGGUCGAUGUUGAAUAAUCGCGUGGAUAUGGCACGCAAGUUUCUACCGGGCACCGUAAAUGUCCGACUGGAGCCGUUCGGGCGGCUAUAAACAGACCUCAGGCCCGAAGCGUGGCGGCACCUGCCGCCGGUGGUAAAAAAGAUCGGAAGAGCACACGUCU [U7A C12G C13A] | 1.38
GGGUCGAUGUUGGAUAAUCGCGUGGAUAUGGCACGCAAGUUUCUACCGGGCACCGUAAAUGUCCGACUGGAGCCGUUCGGGCGGCUAUAAACAGACCUCAGGCCCGAAGCGUGGCGGCACCUGCCGCCGGUGGUAAAAAAGAUCGGAAGAGCACACGUCU [U7A C12G C13G] | 1.26
GGGUCGAUGUUGUAUAAUCGCGUGGAUAUGGCACGCAAGUUUCUACCGGGCACCGUAAAUGUCCGACUGGAGCCGUUCGGGCGGCUAUAAACAGACCUCAGGCCCGAAGCGUGGCGGCACCUGCCGCCGGUGGUAAAAAAGAUCGGAAGAGCACACGUCU [U7A C12G C13U] | 1.27
GGGUCGAUGUUAUAUAAUCGCGUGGAUAUGGCACGCAAGUUUCUACCGGGCACCGUAAAUGUCCGACUGGAGCCGUUCGGGCGGCUAUAAACAGACCUCAGGCCCGAAGCGUGGCGGCACCUGCCGCCGGUGGUAAAAAAGAUCGGAAGAGCACACGUCU [U7A C12A C13U] | 1.22
GGGUCGAUGUUAAAUAAUCGCGUGGAUAUGGCACGCAAGUUUCUACCGGGCACCGUAAAUGUCCGACUGGAGCCGUUCGGGCGGCUAUAAACAGACCUCAGGCCCGAAGCGUGGCGGCACCUGCCGCCGGUGGUAAAAAAGAUCGGAAGAGCACACGUCU [U7A C12A C13A] | 1.4
GGGUCGAUGUUAGAUAAUCGCGUGGAUAUGGCACGCAAGUUUCUACCGGGCACCGUAAAUGUCCGACUGGAGCCGUUCGGGCGGCUAUAAACAGACCUCAGGCCCGAAGCGUGGCGGCACCUGCCGCCGGUGGUAAAAAAGAUCGGAAGAGCACACGUCU [U7A C12A C13G] | 1.2
